In publication PMC11044841 (2024):

Molecular target: GST-NTF2L (GST-tagged NTF2-like domain of G3BP1) (human)
Assay: SPR

Sequence of GST-NTF2L (GST-tagged NTF2-like domain of G3BP1) (human) (chain, as listed by the source): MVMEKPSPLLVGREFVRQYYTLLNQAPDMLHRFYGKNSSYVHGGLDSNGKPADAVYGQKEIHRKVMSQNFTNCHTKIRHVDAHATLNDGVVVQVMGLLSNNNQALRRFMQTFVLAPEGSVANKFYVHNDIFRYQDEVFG

| Binder | Kd [nM] |
| --- | --- |
| LTFGDFDEHEVDALASGITFGDFDD [SFV nsP3 (449–473) peptide] | 2500 |
| MALHSPQYIFGDFSPDEFNQFFVTP [USP10 (1–25) peptide] | 110 |
